No end group written: not given here.
Tests used:
SNAP-Syk tSH2 [1] = target: T1, SNAP-Syk tSH2 (mouse, UniProt P48025 1-262); experiment: liposome-based fluorescence quenching (FRET) assay; His10-FcRγ on NiNTA liposomes phosphorylated by Lck, 100 nM SNAP-505 Syk tSH2, receptor titrated 0-500 nM; apparent Kd, one site specific binding fit
Protocol: (§1) Experiments were carried out as previously described (Alvey C M et al., Current Biology 27:2065-2077, 2017). Briefly, proteins were purified using a bacterial expression system. All protein components (1 mg/ml BSA, 100 nM tSH2-Syk SNAP-505, 0 to 500 nM His10-CD3ζ or His10-FcRγ intracellular chain, and 7.2 nM His10-Lck Y505F) were mixed into kinase buffer (50 mM HEPES-NaOH pH 6.8, 150 mM NaCl, 10 mM MgCl₂, and 1 mM TCEP). Liposomes prepared at the following molar ratios: 74.5% POPC (Avanti, Catalog #850457C), 10% DOGS-NTA (Nickel) (Avanti, Catalog #790404C, 0.5% Rhodamine PE (Avanti, Catalog #810150C), and 15% DOPS (Avanti, Catalog #840035C) were added and the mixture was incubated for 40-60 minutes at room temperature, during which the SNAP-505 fluorescence was monitored at 8 s intervals with 504 nm excitation and 540 nm emission. 1 mM ATP was then injected to trigger Lck mediated phosphorylation of CD3ζ or FcRγ. Injection was followed by 5 seconds of automatic shaking of the plate, and the fluorescence was further monitored at 8 s intervals for at least 1 hr. Data were normalized by setting the average fluorescence value of the last 10 data points before ATP addition as 100% and background fluorescence as 0%. […]

SNAP-Syk tSH2 [2] = target: T1, SNAP-Syk tSH2; experiment: liposome-based fluorescence quenching assay: SNAP-505-labelled Syk tSH2 reporter, rhodamine-PE liposomes carrying His10-receptor tail (0 to 500 nM) phosphorylated by His10-Lck Y505F after ATP; Kd ± SE from a one-site specific binding fit
Protocol: as §1

Kd (SNAP-Syk tSH2 [1]): ~30 nM | Kd (SNAP-Syk tSH2 [2]): 31.2 nM
B1: His10-FcRγ (other, human)
chain: HHHHHHHHHHRLKIQVRKAAITSYEKSDGVYTGLSTRNQETYETLKHEKPP
modifications: not fully specified
notes: range 45-85; titrated 0 to 500 nM; also called His10-FcRγ intracellular chain; His10-FcRγ-chain
